Like-named read-outs stand apart in the source and are kept apart here.
Legend:
[1] = format: physicochemical
Method: Field of use applications were analyzed to determine the amount of a peroxide-reducing enzyme necessary to obtain desired concentrations of both peracid and hydrogen peroxide in a treated water source. EnviroSan (POAA) peracid composition was added to water to reach the targeted POAA concentrations set forth in Table 18, and the concentration of both POAA and H2O2 were confirmed by iodometric titration. Then catalase (ES2000) was added to the solution, and the sample was stored under ambient conditions. The concentration of POAA and H2O2 were monitored by the iodometric conditions.

[2] = Example 21 hydrogen peroxide decomposition with sequenced POAA and hypochlorite in deionized and contaminated water; format: physicochemical; settings: water not containing any biological contamination
Source text: Additional evaluation of the process of using peroxide-reducing agents in sequence was further analyzed as shown in Table 32 using additional water samples, including deionized water (i.e. not contaminated), and the Control (as set forth above as a contaminated water source).
The peracetic acid and sodium hypochlorite are indistinguishable in titration, and are therefore presumed to consist of ½ of the titrateable material; however the focus of the evaluation was solely on the hydrogen peroxide decomposition.

[3] = Catalase 0.5 ppm, Time 1 hr, run starting at 14.6 ppm POAA
[4] = Catalase 1.0 ppm, Time 1 hr, run starting at 30.1 ppm POAA

| Compound | selectivity of H2O2 decomposition versus POAA stability [1] | H2O2(ppm) ([1]; Catalase 0.5 ppm, Time 0 hr, run starting at 14.6 ppm POAA) | H2O2(ppm) [1, 3] [ppm] | POAA (ppm) [1, 3] [ppm] | POAA (ppm) ([1]; Catalase 0.5 ppm, Time 1 hr, run starting at 31.1 ppm POAA) | H2O2(ppm) ([1]; Catalase 0.5 ppm, Time 2 hr, run starting at 14.6 ppm POAA) | H2O2(ppm) ([1]; Catalase 0.5 ppm, Time 2 hr, run starting at 31.1 ppm POAA) | H2O2(ppm) ([1]; Catalase 0.5 ppm, Time 3.6 hr, run starting at 14.6 ppm POAA) | H2O2(ppm) ([1]; Catalase 0.5 ppm, Time 3.6 hr, run starting at 31.1 ppm POAA) | H2O2(ppm) ([1]; Catalase 1.0 ppm, Time 1 hr, run starting at 14.8 ppm POAA) | H2O2(ppm) [1, 4] [ppm] | POAA (ppm) [1, 4] [ppm] | H2O2(ppm) ([1]; Catalase 1.0 ppm, Time 2 hr, run starting at 14.8 ppm POAA) | H2O2(ppm) ([1]; Catalase 1.0 ppm, Time 2 hr, run starting at 30.1 ppm POAA) | H2O2(ppm) ([1]; Catalase 1.0 ppm, Time 3.6 hr, run starting at 14.8 ppm POAA) | H2O2(ppm) ([1]; Catalase 1.0 ppm, Time 3.6 hr, run starting at 30.1 ppm POAA) | lowest catalase concentration treating pond water with POAA and H2O2 ([1]; within 4 hours, ambient conditions) [ppm] | impact on the decomposition of hydrogen peroxide [2] |
| --- | --- | --- | --- | --- | --- | --- | --- | --- | --- | --- | --- | --- | --- | --- | --- | --- | --- | --- |
| catalase | selectively decomposes the H2O2 without having any negative impact on POAA stability | 12.0 | 7.5 | 15.0 | 32.0 | 6.5 | 7.8 | 1.8 | 3.4 | 3.7 | 7.6 | 31.0 | 1.1 | 2.3 | 0.4 | 0.0 | 0.5 |  |
| OCl [hypochlorite, sodium hypochlorite] |  |  |  |  |  |  |  |  |  |  |  |  |  |  |  |  |  | efficacious impact on the decomposition of hydrogen peroxide |

Source: patent US9926214B2, “Use of peracetic acid/hydrogen peroxide and peroxide-reducing agents for treatment of drilling fluids, frac fluids, flowback water and disposal water” (Ecolab USA Inc., priority 2012, dated 2018)
